Reference: patent US20230220042A1 (SHANGHAI JIAO TONG UNIVERSITY SCHOOL OF MEDICINE, published 2023)

T1: Biotin-FcγRIIB (human FcγRIIB, Sino Biological) (human, UniProt P31994 43-217, limits assumed, biotin-labeled)
T1 construct: Used at 1 µg/ml with Streptavidin-APC for flow cytometry and sorting; also called CD32b
T1 sequence (looked up): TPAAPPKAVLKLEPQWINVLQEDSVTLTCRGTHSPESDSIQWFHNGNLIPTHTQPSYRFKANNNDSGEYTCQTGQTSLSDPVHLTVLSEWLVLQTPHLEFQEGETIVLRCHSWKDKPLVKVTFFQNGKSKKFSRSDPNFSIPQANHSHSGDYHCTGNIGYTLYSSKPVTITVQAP


Biological target: T1, Biotin-FcγRIIB (human FcγRIIB, Sino …)
Experiment: NGS after FACS sort of 3T3-displayed LibraryMix for biotin-FcγRIIB binding

Binder | Enrichment factor (percentage after sorting/percentage before sorting) | Increased factor (enrichment factor/wild-type enrichment factor)
human IgG2 anti-mouse CD40 surface displayed antibody, P271A/S298R (antibody, name in EU numbering, m1 with these Fc mutations (Eu numbering); copies: 2 + 2) light chain (with the P2A rest): DTVLTQSPALAVSPGERVTISCRASDSVSTLMHWYQQKPGQQPKLLIYLASHLESGVPARFSGSGSGTDFTLTIDPVEADDTATYYCQQSWNDPWTFGGGTKLELKRTVAAPSVFIFPPSDEQLKSGTASVVCLLNNFYPREAKVQWKVDNALQSGNSQESVTEQDSKDSTYSLSSTLTLSKADYEKHKVYACEVTHQGLSSPVTKSFNRGECGSGATNFSLLKQAGDVEENPG heavy chain: EVQLVESDGGLVQPGRSLKLPCAASGFTFSDYYMAWVRQAPTKGLEWVASISYDGSSTYYRDSVKGRFTISRDNAKSTLYLQMDSLRSEDTATYYCGRHSSYFDYWGQGVMVTVSSASTKGPSVFPLAPCSRSTSESTAALGCLVKDYFPEPVTVSWNSGALTSGVHTFPAVLQSSGLYSLSSVVTVPSSNFGTQTYTCNVDHKPSNTKVDKTVERKCCVECPPCPAPPVAGPSVFLFPPKPKDTLMISRTPEVTCVVVDVSHEDAEVQFNWYVDGVEVHNAKTKPREEQFNRTFRVVSVLTVVHQDWLNGKEYKCKVSNKGLPAPIEKTISKTKGQPREPQVYTLPPSREEMTKNQVSLTCLVKGFYPSDIAVEWESNGQPENNYKTTPPMLDSDGSFFLYSKLTVDKSRWQQGNVFSCSVMHEALHNHYTQKSLSLSPGKLEPPPSTVSNMATVAVLVVLGAAIVTGAVVAFVMKMRRRNTGGKGGDYALAPGSQTSDLSLPDCKVMVHDPHSLA | 2.45 | 3.27
human IgG2 anti-mouse CD40 surface displayed antibody, P271G/S298G (antibody, name in EU numbering, m1 with these Fc mutations (Eu numbering); copies: 2 + 2) light chain (with the P2A rest): DTVLTQSPALAVSPGERVTISCRASDSVSTLMHWYQQKPGQQPKLLIYLASHLESGVPARFSGSGSGTDFTLTIDPVEADDTATYYCQQSWNDPWTFGGGTKLELKRTVAAPSVFIFPPSDEQLKSGTASVVCLLNNFYPREAKVQWKVDNALQSGNSQESVTEQDSKDSTYSLSSTLTLSKADYEKHKVYACEVTHQGLSSPVTKSFNRGECGSGATNFSLLKQAGDVEENPG heavy chain: EVQLVESDGGLVQPGRSLKLPCAASGFTFSDYYMAWVRQAPTKGLEWVASISYDGSSTYYRDSVKGRFTISRDNAKSTLYLQMDSLRSEDTATYYCGRHSSYFDYWGQGVMVTVSSASTKGPSVFPLAPCSRSTSESTAALGCLVKDYFPEPVTVSWNSGALTSGVHTFPAVLQSSGLYSLSSVVTVPSSNFGTQTYTCNVDHKPSNTKVDKTVERKCCVECPPCPAPPVAGPSVFLFPPKPKDTLMISRTPEVTCVVVDVSHEDGEVQFNWYVDGVEVHNAKTKPREEQFNGTFRVVSVLTVVHQDWLNGKEYKCKVSNKGLPAPIEKTISKTKGQPREPQVYTLPPSREEMTKNQVSLTCLVKGFYPSDIAVEWESNGQPENNYKTTPPMLDSDGSFFLYSKLTVDKSRWQQGNVFSCSVMHEALHNHYTQKSLSLSPGKLEPPPSTVSNMATVAVLVVLGAAIVTGAVVAFVMKMRRRNTGGKGGDYALAPGSQTSDLSLPDCKVMVHDPHSLA | 9.73 | 13
human IgG2 anti-mouse CD40 surface displayed antibody, P271G/S298D (antibody, name in EU numbering, m1 with these Fc mutations (Eu numbering); copies: 2 + 2) light chain (with the P2A rest): DTVLTQSPALAVSPGERVTISCRASDSVSTLMHWYQQKPGQQPKLLIYLASHLESGVPARFSGSGSGTDFTLTIDPVEADDTATYYCQQSWNDPWTFGGGTKLELKRTVAAPSVFIFPPSDEQLKSGTASVVCLLNNFYPREAKVQWKVDNALQSGNSQESVTEQDSKDSTYSLSSTLTLSKADYEKHKVYACEVTHQGLSSPVTKSFNRGECGSGATNFSLLKQAGDVEENPG heavy chain: EVQLVESDGGLVQPGRSLKLPCAASGFTFSDYYMAWVRQAPTKGLEWVASISYDGSSTYYRDSVKGRFTISRDNAKSTLYLQMDSLRSEDTATYYCGRHSSYFDYWGQGVMVTVSSASTKGPSVFPLAPCSRSTSESTAALGCLVKDYFPEPVTVSWNSGALTSGVHTFPAVLQSSGLYSLSSVVTVPSSNFGTQTYTCNVDHKPSNTKVDKTVERKCCVECPPCPAPPVAGPSVFLFPPKPKDTLMISRTPEVTCVVVDVSHEDGEVQFNWYVDGVEVHNAKTKPREEQFNDTFRVVSVLTVVHQDWLNGKEYKCKVSNKGLPAPIEKTISKTKGQPREPQVYTLPPSREEMTKNQVSLTCLVKGFYPSDIAVEWESNGQPENNYKTTPPMLDSDGSFFLYSKLTVDKSRWQQGNVFSCSVMHEALHNHYTQKSLSLSPGKLEPPPSTVSNMATVAVLVVLGAAIVTGAVVAFVMKMRRRNTGGKGGDYALAPGSQTSDLSLPDCKVMVHDPHSLA | 6.78 | 9.06
human IgG2 anti-mouse CD40 surface displayed antibody, P271G/P331T (antibody, name in EU numbering, m1 with these Fc mutations (Eu numbering); copies: 2 + 2) light chain (with the P2A rest): DTVLTQSPALAVSPGERVTISCRASDSVSTLMHWYQQKPGQQPKLLIYLASHLESGVPARFSGSGSGTDFTLTIDPVEADDTATYYCQQSWNDPWTFGGGTKLELKRTVAAPSVFIFPPSDEQLKSGTASVVCLLNNFYPREAKVQWKVDNALQSGNSQESVTEQDSKDSTYSLSSTLTLSKADYEKHKVYACEVTHQGLSSPVTKSFNRGECGSGATNFSLLKQAGDVEENPG heavy chain: EVQLVESDGGLVQPGRSLKLPCAASGFTFSDYYMAWVRQAPTKGLEWVASISYDGSSTYYRDSVKGRFTISRDNAKSTLYLQMDSLRSEDTATYYCGRHSSYFDYWGQGVMVTVSSASTKGPSVFPLAPCSRSTSESTAALGCLVKDYFPEPVTVSWNSGALTSGVHTFPAVLQSSGLYSLSSVVTVPSSNFGTQTYTCNVDHKPSNTKVDKTVERKCCVECPPCPAPPVAGPSVFLFPPKPKDTLMISRTPEVTCVVVDVSHEDGEVQFNWYVDGVEVHNAKTKPREEQFNSTFRVVSVLTVVHQDWLNGKEYKCKVSNKGLPATIEKTISKTKGQPREPQVYTLPPSREEMTKNQVSLTCLVKGFYPSDIAVEWESNGQPENNYKTTPPMLDSDGSFFLYSKLTVDKSRWQQGNVFSCSVMHEALHNHYTQKSLSLSPGKLEPPPSTVSNMATVAVLVVLGAAIVTGAVVAFVMKMRRRNTGGKGGDYALAPGSQTSDLSLPDCKVMVHDPHSLA | 32.3 | 43.2
human IgG2 anti-mouse CD40 surface displayed antibody, P271G/P329S (antibody, name in EU numbering, m1 with these Fc mutations (Eu numbering); copies: 2 + 2) light chain (with the P2A rest): DTVLTQSPALAVSPGERVTISCRASDSVSTLMHWYQQKPGQQPKLLIYLASHLESGVPARFSGSGSGTDFTLTIDPVEADDTATYYCQQSWNDPWTFGGGTKLELKRTVAAPSVFIFPPSDEQLKSGTASVVCLLNNFYPREAKVQWKVDNALQSGNSQESVTEQDSKDSTYSLSSTLTLSKADYEKHKVYACEVTHQGLSSPVTKSFNRGECGSGATNFSLLKQAGDVEENPG heavy chain: EVQLVESDGGLVQPGRSLKLPCAASGFTFSDYYMAWVRQAPTKGLEWVASISYDGSSTYYRDSVKGRFTISRDNAKSTLYLQMDSLRSEDTATYYCGRHSSYFDYWGQGVMVTVSSASTKGPSVFPLAPCSRSTSESTAALGCLVKDYFPEPVTVSWNSGALTSGVHTFPAVLQSSGLYSLSSVVTVPSSNFGTQTYTCNVDHKPSNTKVDKTVERKCCVECPPCPAPPVAGPSVFLFPPKPKDTLMISRTPEVTCVVVDVSHEDGEVQFNWYVDGVEVHNAKTKPREEQFNSTFRVVSVLTVVHQDWLNGKEYKCKVSNKGLSAPIEKTISKTKGQPREPQVYTLPPSREEMTKNQVSLTCLVKGFYPSDIAVEWESNGQPENNYKTTPPMLDSDGSFFLYSKLTVDKSRWQQGNVFSCSVMHEALHNHYTQKSLSLSPGKLEPPPSTVSNMATVAVLVVLGAAIVTGAVVAFVMKMRRRNTGGKGGDYALAPGSQTSDLSLPDCKVMVHDPHSLA | 46.2 | 61.8
human IgG2 anti-mouse CD40 surface displayed antibody, P271G/S298E (antibody, name in EU numbering, m1 with these Fc mutations (Eu numbering); copies: 2 + 2) light chain (with the P2A rest): DTVLTQSPALAVSPGERVTISCRASDSVSTLMHWYQQKPGQQPKLLIYLASHLESGVPARFSGSGSGTDFTLTIDPVEADDTATYYCQQSWNDPWTFGGGTKLELKRTVAAPSVFIFPPSDEQLKSGTASVVCLLNNFYPREAKVQWKVDNALQSGNSQESVTEQDSKDSTYSLSSTLTLSKADYEKHKVYACEVTHQGLSSPVTKSFNRGECGSGATNFSLLKQAGDVEENPG heavy chain: EVQLVESDGGLVQPGRSLKLPCAASGFTFSDYYMAWVRQAPTKGLEWVASISYDGSSTYYRDSVKGRFTISRDNAKSTLYLQMDSLRSEDTATYYCGRHSSYFDYWGQGVMVTVSSASTKGPSVFPLAPCSRSTSESTAALGCLVKDYFPEPVTVSWNSGALTSGVHTFPAVLQSSGLYSLSSVVTVPSSNFGTQTYTCNVDHKPSNTKVDKTVERKCCVECPPCPAPPVAGPSVFLFPPKPKDTLMISRTPEVTCVVVDVSHEDGEVQFNWYVDGVEVHNAKTKPREEQFNETFRVVSVLTVVHQDWLNGKEYKCKVSNKGLPAPIEKTISKTKGQPREPQVYTLPPSREEMTKNQVSLTCLVKGFYPSDIAVEWESNGQPENNYKTTPPMLDSDGSFFLYSKLTVDKSRWQQGNVFSCSVMHEALHNHYTQKSLSLSPGKLEPPPSTVSNMATVAVLVVLGAAIVTGAVVAFVMKMRRRNTGGKGGDYALAPGSQTSDLSLPDCKVMVHDPHSLA | 298 | 398
human IgG2 anti-mouse CD40 surface displayed antibody, P271G/P331C (antibody, name in EU numbering, m1 with these Fc mutations (Eu numbering); copies: 2 + 2) light chain (with the P2A rest): DTVLTQSPALAVSPGERVTISCRASDSVSTLMHWYQQKPGQQPKLLIYLASHLESGVPARFSGSGSGTDFTLTIDPVEADDTATYYCQQSWNDPWTFGGGTKLELKRTVAAPSVFIFPPSDEQLKSGTASVVCLLNNFYPREAKVQWKVDNALQSGNSQESVTEQDSKDSTYSLSSTLTLSKADYEKHKVYACEVTHQGLSSPVTKSFNRGECGSGATNFSLLKQAGDVEENPG heavy chain: EVQLVESDGGLVQPGRSLKLPCAASGFTFSDYYMAWVRQAPTKGLEWVASISYDGSSTYYRDSVKGRFTISRDNAKSTLYLQMDSLRSEDTATYYCGRHSSYFDYWGQGVMVTVSSASTKGPSVFPLAPCSRSTSESTAALGCLVKDYFPEPVTVSWNSGALTSGVHTFPAVLQSSGLYSLSSVVTVPSSNFGTQTYTCNVDHKPSNTKVDKTVERKCCVECPPCPAPPVAGPSVFLFPPKPKDTLMISRTPEVTCVVVDVSHEDGEVQFNWYVDGVEVHNAKTKPREEQFNSTFRVVSVLTVVHQDWLNGKEYKCKVSNKGLPACIEKTISKTKGQPREPQVYTLPPSREEMTKNQVSLTCLVKGFYPSDIAVEWESNGQPENNYKTTPPMLDSDGSFFLYSKLTVDKSRWQQGNVFSCSVMHEALHNHYTQKSLSLSPGKLEPPPSTVSNMATVAVLVVLGAAIVTGAVVAFVMKMRRRNTGGKGGDYALAPGSQTSDLSLPDCKVMVHDPHSLA | 140 | 187
